The text below walks through data of a protein production outcome set (Wang et al. 2014).
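Note: failed if final PepcDB status was selected cloned or expressed and not failed if soluble or beyond.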

This data set in a line: label from the status in PepcDB records.
“MTFEDLHEYLDYLAKKNDLVTITEEVDPNLDLTYILSEEERMGRGRTILFKNVKGSQVPAVGNLFSTNEKLKAVLGDDPYSIGVKIADIVKPPRDSESFIGKGLEMMRELSGLRPKVSNSIPSGYSELEKVDLYRYPICKTWPDDGGPFITLPLVITKDPSTGIRNMGMYRMQVYDSETTGMHWHIHKGGSENFLKEKEKGKAMDVAVVIGSDPLTIFSAVAPLPNGIDEFMFRGLISRKRSELVKGKTVDLEYPRNFEIVLEGYIDPSETRVEGPFGDHTGYYSLEEEFPVFHVKNIIERNDRIYPTTIVGKLWHEDVVLGKAVERMFLPLIQMVLPEVVDINTMEEAVFHNMVIVSIKKRYPGHAKKVMFALWGLGQLMFSKIIVVVDDDINIHNRKELIWAMTTRIDPDRDVIIIPGTVTDSLDHAAPLFNYGSKMGIDATKKDKSEGYTRRWPDVLEMPKDVVDKVRQIMKNNRLIQLEHHHHHH”: the protein production entry is “failed”.

For “MRQPPILSEALRLFFPLAALHGAVWPFLWIVIGGYALPFANAVPPSQWHAHEMIFGTYGMALAGFLGSAVPEWTDTKAAAGRTLLCLAGLWLPGRLIGFVGADTWSLLAGFFDLAFLLALSVLIGKAMLVRRTTKHLAFLVWLILFAAAETGVRYAWWMGDLEFAVRCLEAALCIFIVLFSLSAARINVVVINLALDPSGETTPYRPHPGRQHMAGAMVTLYMAAKLLFPESDVCAWLALAAGAAFFDRLAEWFIGRAVFRTEVLLLALGNAFAGAGFLALGATRLGFSVTSAAGLHLLSVGALGCAIMAVFIIAGLRHTGRDLKHLPWQAHAAAALMVMAGLTRILPEFDVAAVLSPYHHGLSAILWAASFGIWLQGFLPFMRAPGTDEAGACG”, the protein production result is “failed”.

Regarding “MGGASWADTAMGGKGRHPDKALTTVQVRALKVPGRYADGNGLYLVVEPSGSKRWLLRTIVQGRRRDIGLGGAGLVTLAEAREKALAYRKLARDGGDPLAERRKARATVPTFAEAAEQVHEEHKASWKNPKHAAQWITTLRTYANPHLGARRVDQIETPDVLRALSPIWLTKGETARRVRQRIGTVLDWAKAAGHRTGDNPVESVAKGLPKQGERDEHHAALPYAEVPAFVTRLQSSDHGEAARLAFEFLILTAARTSEVLRAEWREIDEAEALWTVPAARMKAGREHRVPLSKRSLEIVRRAKLLAGDSAFIFPGRSTGKPMSNMVFLMALRRMKLTVTAHGFRSSFRDWAAEATSLPREVAEMALAHTIENRVEAAYRRGDLLAKRREMMEQWSTFVASKPKGDKPHKSSA”, the protein production entry is on record as “failed”.

With “SLRPPLPPATPQEVQFVQHMLQHHAQALDLAAPMLERSQQRTVRSLALDIQLSQREQMRQMEAMLGRWGQPPGEPISPEHARMMGMASEAEVAGLSTLPVEQAERQFLRLMIRHHQGAVAMTLPMLDAAARPEVERLARQIVVTQRGEIRTMEGVLGRLDGEVPAAPMRPVEHGHGH”, the protein production entry is “not failed”.

Regarding “MCLSIPSQVVAVDNERQSVTVDTLGVRRDVSSHLMTEPLAIGDYVLIHIGFVMNKIDRNDALQSLELYQEIVSKLENETTH”, the protein production result is given as “not failed”.

Consider “MAKRTPSIDTKNLTAVQLMELDACVRCGECVKWCPTYAASGGKPGLAPRDKILRWRQYMNKSYGLKAKLFGPQEVSPSELEEFKDDVHGCTTCGVCATVCEAGINTVEIWEAIRTNLVKKGIGPYGKQSAFPKLVGQYHNPYMKDQKDRLAWVPPDVKIEDKADIVYFTGCTAGYNQLALAFATSRVLNKLGIKFAMLGEEEWCCGSALIRTGQVHVDDVARELARHNVEALQKKGAKKVLFACAGCFRAAKIDWPRLLGKELPFEVIHITQFLADLIQADKIKWEKPINKTITYHDPCHLGRHVGVFNAPRYVLSHIPGVKFVEMDRSKEFQRCCGAGGGVKAGMPDLAVAMGESRVKDALETNADILSSACPFCKRNLSDGRDALKSDIVVEDIIELVAEALGLSTS”, for which the protein production result is reported as “failed”.

As to “MSSPFPADTPSSNRPSNSSPPPSSIGAGFGSSSGLDSQIGSRLHFPSSSQPHVSNSQTGPFVNDSTQFSSQRLQTDGSATNDMEGNEPARSFKSRALNHVKKVDDVTGEKVREAFEQFLEDFSVQSTDTGEVEKVYRAQIEFMKIYDLNTIYIDYQHLSMRENGALAMAISEQYYRFLPFLQKGLRRVVRKYAPELLNTSDSLKRSEGDEGQADEDEQQDDDMNGSSLPRDSGSSAAPGNGTSAMATRSITTSTSPEQTERVFQISFFNLPTVHRIRDIRSEKIGSLLSISGTVTRTSEVRPELYKASFTCDMCRAIVDNVEQSFKYTEPTFCPNPSCENRAFWTLNVTRSRFLDWQKVRIQENANEIPTGSMPRTLDVILRGDSVERAKPGDRCKFTGVEIVVPDVTQLGLPGVKPSSTLDTRGISKTTEGLNSGVTGLRSLGVRDLTYKISFLACHVISIGSNIGASSPDANSNNRETELQMAANLQANNVYQDNERDQEVFLNSLSSDEINELKEMVKDEHIYDKLVRSIAPAVFGHEAVKKGILLQMLGGVHKSTVEGIKLRGDINICVVGDPSTSKSQFLKYVVGFAPRSVYTSGKASSAAGLTAAVVRDEEGGDYTIEAGALMLADNGICCIDEFDKMDISDQVAIHEAMEQQTISIAKAGIHATLNARTSILAAANPVGGRYNRKLSLRGNLNMTAPIMSRFDLFFVILDDCNEKIDTELASHIVDLHMKRDEAIEPPFSAEQLRRYIKYARTFKPILTKEARSYLVEKYKELRKDDAQGFSRSSYRITVRQLESMIRLSEAIARANCVDEITPSFIAEAYDLLRQSIIRVDVDDVEMDEEFDNIESQSHAASGNNDDNDDGTGSGVITSEPPADIEEGQSEATARPGTSEKKKTTVTYDKYVSMMNMIVRKIAEVDREGAEELTAVDIVDWYLLQKENDLGSLAEYWEERRLAFKVIKRLVKDRILMEIHGTRHNLRDLENEENENNKTVYVIHPNCEVLDQLEPQDSS”, the protein production entry is on record as “failed”.

As to “MIRIKTPSEIEKMKKAGKAVAVALREVRKVIVPGKTAWDVETLVLEIFKKLRVKPAFKGYGGYKYATCVSVNEEVVHGLPLKEKVFKEGDIVSVDVGAVYQGLYGDAAVTYIVGETDERGKELVRVTREVLEKAIKMIKPGIRLGDVSHCIQETVESVGFNVIRDYVGHGVGRELHEDPQIPNYGTPGTGVVLRKGMTLAIEPMVSEGDWRVVVKEDGWTAVTVDGSRCAHFEHTILITENGAEILTKEG”, the protein production result is recorded as “not failed”.

Regarding “MMNIRSKYAVYIFPLLLILFFVGTASALPTVAHDRVQGEMYVASTANWDSHYSTNSFDVPNGTVVFARYYVGVWASGTPSSISATFNGHAFETNPSYYISGMGVTWIPFNVTDYVQPGETNTATIDSSHWGDGRQYGSTLVVVLENENKPEVEYWIAEGLDWVIGYGSSTTYFNDTNIDLDDVDSASLYSTILTGYSSESLNGESLSGAVDSVSGAYFNYIRWDNVKDSLTAENQTIKVVGDGDYTSAVLHGLSITYKIPDLVPTSLTPSYVTPGTVNTMTATIENTDKDSPSFNVSLIADGTVVDTQDVSGIAAGGSTTVDLQWTPEGGKDSYSLTVVVDPDNSVVESEETNNELTVLVGSASVEVPVANFTAVPTSGSIPLTVNFTDQSTNSPTSWFWDFGDGENSTSQNPSHTYTSVGNHTVSLTVTNAEGSDSEVKTDYITVEVITPVAAFTADNTSGAAPFTVQFTDQSANLPAEWFWDFGDGTNSTEQNPAHTYITAGKYTVKLTTANAAGNDSEEKTDYITAYIPPVANFTATPTSGGAPLTVTFTDTSTNMPTEWLWDFGDGVNSTDQNPIHTYTSAGNYTVSFTATNSGGSDSELKTAYITVTAEAGKGGLADTAWPKFHYDLGNTGQSPYTGPQTANVVWTYTTTGEMRLGQGAVIGSDGTMYIGDRSGTLYAINPNGTLKWGTSIGTKSFPTPAIASDGTIYAGGNDKIVYAINPDGSIKWSYPVGTKSVISSPAIASDGTIYFATSTNLFALKPDGTLKWNSAVSYGGYNYFSPAIGSDGTIYLGTYGGALSAINADGTLKWTYSIPAPNNYIYDTPAIASDGTIYFGCNNANLYALNPDGTLKWTYSVGTSASQAIKSSPAIGSDGTIYFGSNNQYFYALYPDGTLKWSSKAGSFGQTTPTIGSDGTIYIDNYGSKTLYAFNPDGTVKWSYADGNYNYASPAIASDGTLYFGKGYTVYAFRDVAPVSNFTADPTSGTAPLTVNFTDQSTGSPTSWFWDFGDGANSTEQNPVHTYSVAGNYTTNLTVTNSAGTDFEVKTDYITVLEPSTPEPEPVAAFTADVTSGSAPLTVNFTDQSTGSPTSWLWDFGDGTNSTEQNPVHTYASAGSYTVNLTVENDAGSDFELKTDYIEVSEISGSTVTLYFDPESSSVAENESTEISLVASNFPAGLSGYNLTVAIDDPAVAEIVGIEYPTWALITENSTLPGTSIYMKTVDLEDSIKEEEGEVVLATLTVSGKEKGSANISIGVKRLEDDSGDSIEPALLTGTIEVTILSLLPDQEYAPKDLDGDGLYEDLTGNGEFSFVDIVAYFHNMDWIEENMPVEYFDFNGNGRIDFDDVVDMFAMI”, the protein production entry is listed as “failed”.

Turning to “MIYDFCVIGGGIVGLATAMRLLEVYPGCSLVLMEKELSLAQHQTGHNSGVIHAGVYYAPGSFKAKLCARGAELTKSFCTEHSIPYEVCGKLVVASNKDSLARLGSLEERAKQNGLATERLDALELRRREPNVAGEGALFVKSSGIVDYGVVSNSMANVIIQSGGQILLGQTVVSIEEHGNHVNIASEGSSLSAKKLVVCAGLQSDRLATLAGLKLDCQIVPFRGEYYRLSSHLDYSVKHLIYPVPEVGLPFLGIHITRMINGGVTVGPN”, the protein production entry is reported as “failed”.

“MSCRHGTTRCRSLCDYGGLSMQYVNTCPVLNVEECDRLSFMPYLFGTDFMLAELQVYALAKKWMPGYEGGFWHFIRLPEGGGYMMPDCGRVHLVSSENWFDRTVSADAAGIILTSLAINRRLAAHHDSSNPALTRLYMLRDAQLWNHITFHPECSAIYAALD”: the protein production result is “failed”.

With “MLKTLAVANYRSINKLVIPLGRLNLVTGANGSGKSNLYRALRLLAETAQGGVVNALAKEGGLESTYWAGPEQISRRMSQGEVPIQGGPRKAARRLQLGFAGEDFGYAISLGLPDSSGHFMLPGHSSPIASRFTLDPWIKRESIWGGPLYRSASALVDRQGPMIRARAGRQWEVLAQHTSSGDSLFDRVGNLSSSPEVLHLREQIRGWRFYDHLRTDSQAPARRPQLGTRTPVLHHDGRDLAAALQTIIEVGDQQALHETISDAFPESRLEIDAVPGGLFGVQFYQEGLLRPLSAAELSDGTLRYLLLVAALLTPRPPTLMVLNEPETSLHPDLLPALARLIIRASQQCQVWVVSHARRLIAALQQDPECNCIVLEKQLGQTGIVGQRMLDEPAWNWPDLEHHHHHH”, the protein production entry is “failed”.

Regarding “MKMKYDPGETWRSIYRENKRCDGFNNYYDDESASYQFSENPYVWKDGKERCRTIGMQNDWTALDIGAGAGSMTVPLAKICKRVTAVEPSKTMARILSSNLKKAGLDNVQIINSRWEDAPEEIERHDIIIAAYSLMIDDIEKAVLRMNSLARKKVYLYWFAGVPYWERHCLDLWSTIYGYEYTPSPKVDLIFAVLYKHGIYPDVVNLDSERPPYERVMTTEQAMDELKDSLHLKGNDEWDELLMRYIEDNYEKKEDGCWSRGGSSRMRISWSPQP”, the protein production result is reported as “failed”.

Take “SDYEKFLLFGDSITEFAFNTRPIEDGKDQYALGAALVNEYTRKMDILQRGFKGYTSRWALKILPEILKHESNIVMATIFLGANDACSAGPQSVPLPEFIDNIRQMVSLMKSYHIRPIIIGPGLVDREKWEKEKSEEIALGYFRTNENFAIYSDALAKLANEEKVPFVALNKAFQQEGGDAWQQLLTDGLHFSGKGYKIFHDELLKVIETFYPQYHPKNMQYKLKDWRDVLDDGSNIMS”: the protein production entry was “not failed”.

Turning to “MDFYQFAEYIVLNYGYFGIFLIAFTEAVIQPILPDIFIIGASAFGLDSVTCALVASFGSLTGGYTGYFLGKKLGTNVFLKIFKEKYFIKGKAFFEKFGVWGVAIAGFTPIPYKVFAWLAGIFKMNLVSFGAGTLLGRIPRFLLVAYFGYSLGLLFGLHTP”, the protein production entry is reported as “failed”.

In the case of “MKNFSRTGKILFSYGAIQMFWGLVMLNVNVFEHTSETIKYVILITGIVFCIISNFFKEHKSHTIT”, the protein production entry is given as “failed”.
